These results are taken from US20210155689A1 (SHANGHAI PHARMAEXPLORER, published 2021).

Where a chain is given by its changes, count along the chain named.

Assay [1] concerns the target T1, human LAG-3 (full length, on the cell surface) (human, UniProt P18627 23-525).
T1 construct: Full-length human LAG-3 expressed on cells; also called HEK293-hLAG-3; HEK293 cells transfected with LAG-3 gene
T1 sequence: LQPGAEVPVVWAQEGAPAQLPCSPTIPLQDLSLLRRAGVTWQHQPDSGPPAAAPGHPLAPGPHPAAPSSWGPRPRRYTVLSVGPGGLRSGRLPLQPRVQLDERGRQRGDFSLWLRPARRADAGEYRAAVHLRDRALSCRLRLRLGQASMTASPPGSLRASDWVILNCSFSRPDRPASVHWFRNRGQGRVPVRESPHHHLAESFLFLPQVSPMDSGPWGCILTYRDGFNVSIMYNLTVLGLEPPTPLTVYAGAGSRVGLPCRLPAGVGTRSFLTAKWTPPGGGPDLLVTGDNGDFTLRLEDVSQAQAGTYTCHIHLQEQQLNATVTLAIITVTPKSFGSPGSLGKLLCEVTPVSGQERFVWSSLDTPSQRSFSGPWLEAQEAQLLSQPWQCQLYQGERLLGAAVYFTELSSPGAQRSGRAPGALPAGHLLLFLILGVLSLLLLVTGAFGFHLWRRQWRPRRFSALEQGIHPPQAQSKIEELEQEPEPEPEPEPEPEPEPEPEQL
As to the kind of experiment: FACS, HEK293-hLAG-3; 8.000 nM. The text has this:
(§1) The pIRES plasmid with the monkey-derived full-length gene was transfected into the HEK293 cell line to construct a HEK293 stable cell line containing monkey LAG-3 (herein referred to as HEK293-cLAG-3 stable cell line). The HEK293-hLAG-3 stable cell line and HEK293-cLAG-3 stable cell line were expanded in a T-75 cell culture flask to a 90% confluence. The medium was aspirated, and the cells were washed with HBSS (Hanks' Balanced Salt Solution) 1-2 times, then treated with a enzyme-free cell dissociation fluid (Versene solution: Life technology) and the cells were collected. The cells were washed with HBSS buffer for 1-2 times. After counted, the cells were diluted with HBSS to 1-2×10⁶ cells per ml, added with 1% goat serum blocking solution, incubated on ice for 20-30 minutes, and then washed with HBSS for 2 times by centrifugation. The collected cells were suspended in the FACS buffer (HBSS+1% BSA) to 2×10⁶ cells/ml, added as 100 microliters per well to a 96-well FACS reaction plate, added with 100 microliters per well of the antibody sample to be tested, incubated on ice for 1-2 hours. The plate was washed twice with the FACS buffer by centrifugation, added with 100 microliters of fluorescent (Alexa 488)-labeled secondary antibodies per well, and incubated on ice for 0.5-1.0 hours. The plate was washed 2-3 times with FACS buffer by centrifugation, added with 100 μl fixative solution (4% Paraformaldehyde) per well to suspend the cells. 5-10 minutes later, it was washed 1-2 times with FACS buffer by centrifugation. The cells were suspended with 100 microliters of FACS buffer, FACS (FACSCalibur, BD) was used for detection and the results were analyzed.

Assay [2] concerns the target T2, monkey LAG-3 (full length, on the cell surface) (monkey, UniProt P18627 24-525 (human entry)).
T2 construct: also called HEK293-cLAG-3; monkey LAG-3 protein on the cell surface
T2 chain: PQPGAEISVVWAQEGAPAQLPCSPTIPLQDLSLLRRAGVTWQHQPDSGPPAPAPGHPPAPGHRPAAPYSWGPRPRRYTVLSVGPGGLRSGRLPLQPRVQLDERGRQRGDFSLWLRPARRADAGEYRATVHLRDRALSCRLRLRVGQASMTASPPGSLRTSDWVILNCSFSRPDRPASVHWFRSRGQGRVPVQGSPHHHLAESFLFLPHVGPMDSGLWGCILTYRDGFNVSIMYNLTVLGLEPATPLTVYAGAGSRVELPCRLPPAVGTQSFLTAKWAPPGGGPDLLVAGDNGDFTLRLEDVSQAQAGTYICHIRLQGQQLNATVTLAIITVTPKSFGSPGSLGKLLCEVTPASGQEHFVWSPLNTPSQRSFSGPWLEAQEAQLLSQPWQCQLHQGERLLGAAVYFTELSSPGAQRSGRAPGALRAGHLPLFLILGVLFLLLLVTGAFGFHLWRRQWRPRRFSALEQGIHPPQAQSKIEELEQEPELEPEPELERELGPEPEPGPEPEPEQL
As to the kind of experiment: FACS, HEK293-cLAG-3; 0.013 nM.
Source text: as §1

The target of assay [3] is T3, LAG-3-hFc protein (human LAG-3 extracellular region with hFc tag) (human, UniProt P18627 23-450).
T3 construct: also called hLAG-3-hFc; LAG-3 protein; not shown: human IgG Fc fragment (hFc) of the pCpC vector
T3 sequence: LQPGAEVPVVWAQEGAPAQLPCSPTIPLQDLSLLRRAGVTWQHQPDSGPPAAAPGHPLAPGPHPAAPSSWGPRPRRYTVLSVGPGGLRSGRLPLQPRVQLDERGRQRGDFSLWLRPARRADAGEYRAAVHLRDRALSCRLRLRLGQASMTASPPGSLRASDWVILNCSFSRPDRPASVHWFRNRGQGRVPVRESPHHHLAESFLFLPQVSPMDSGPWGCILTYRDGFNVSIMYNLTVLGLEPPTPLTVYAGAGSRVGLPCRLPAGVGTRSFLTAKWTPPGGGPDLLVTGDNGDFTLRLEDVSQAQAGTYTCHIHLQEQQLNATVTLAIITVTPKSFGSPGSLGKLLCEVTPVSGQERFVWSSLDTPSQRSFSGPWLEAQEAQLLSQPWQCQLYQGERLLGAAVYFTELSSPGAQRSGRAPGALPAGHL
Description: FACS, inhibition of LAG-3-hFc binding to MHC II on Raji cells, antibody 22.222 nM. How it is done:
The FACS reaction plate incubating the Raji cells was centrifuged to discard the supernatant. The above mixture was added as 100 μl per well to Raji cells and incubated on ice for 1-2 hours. The plate was washed twice with blocking solution (PBS, 2% fetal bovine serum) by centrifugation, added with 100 microliters of fluorescent (Alexa 488)-labeled secondary antibodies per well, and incubated on ice for 1.0 hours. The plate was washed 2-3 times by centrifugation with blocking solution (PBS, 2% fetal bovine serum), added with 100 microliters of PBS per well to suspend cells, and detected using FACS (FACS Calibur, BD) and the results were analyzed. Wherein, the IgG control was murine IgG, and the data in the table is the inhibition rate (%).

Assay [4] concerns the target T4, human LAG-3 on cells (HEK293-hLAG-3 stable cell line) (human, UniProt P18627 23-525).
T4 sequence: T1 sequence
Description: FACS, HEK293-hLAG-3, antibody 40.000 nM.
Source text: as §1

B1: 405B8H3 (mouse antibody purified from hybridoma) (antibody, V domains shown)
VH: QVQLQQSGAELVRPGASVTLSCKASGYTFTDYEMHWVKQTPVHGLEWIGATDPETGNSAYNQKFKGKAIMTADKSSSTAYMELRSLTSEDSAVYYCISTGWNDWGQGTSLTVSS
VL: DIKMTQSPSSMYASLGERVTITCKASQDINSYLSWFQQKPGKSPKTLIYRADRLLDGVPSRFSGSGSGQDYSLTISSLEYGDMGIYYCLQYDEFPYTFGGGTKLEIK
notes: also called mAb103-405B8H3; 405B81-13
Consider B1, for which the figures for the Mean fluorescence intensity in assay [1] and in assay [2] were 252 MFI and 4.2 MFI, respectively.

B2: 105F1E10 mouse-human chimeric antibody (antibody, V domains shown)
VH: EVQLQQSGPELVKPGASVKMSCRASGYTFTDFKMHWMKQSHGKSLEWIGYIAPNNGGTAYNQKFRGKATLTVNESSNTAYMELRSLTSEDSAVYYCVDWDDVDYWGQGTTLTVSS
VL: B1 VL with P40S, D52N, L55V, G81E, D92V, Y96L, G100A, I106L
notes: also called mAb009-105F1E10
For B2, the “Inhibition rate (%)” value in assay [3] is 95.8%. Further, the Mean fluorescence intensity in assay [4] came out at 146.

B3: 105F1E10 (mouse antibody purified from hybridoma) (antibody, V domains shown)
VH: B2 VH
VL: B1 VL with P40S, D52N, L55V, G81E, D92V, Y96L, G100A, I106L
notes: also called mAb009-105F1E10
For the molecule B3, the Mean fluorescence intensity in assay [1] turned out to be 235 MFI; in assay [2], 4.1 MFI.

B4: 405B8H3 mouse-human chimeric antibody (antibody, V domains shown)
VH: B1 VH
VL: B1 VL
notes: also called mAb103-405B8H3
Turning to B4, in assay [3], the “Inhibition rate (%)” value stood at 95.7%. The same molecule came in with a Mean fluorescence intensity in assay [4] of 158.

B5: 409B11E12 mouse-human chimeric antibody (antibody, V domains shown)
VH: B1 VH with P41T, G56S, N57Y, M70L, S98A
VL: B1 VL with I2L, D52N, G81E
notes: also called mAb104-409B11E12
Take B5: the “Inhibition rate (%)” value in assay [3] was 95.6%. Besides, the Mean fluorescence intensity in assay [4] was determined as 150.

B6: 409B11E12 (mouse antibody purified from hybridoma) (antibody, V domains shown)
VH: B1 VH with P41T, G56S, N57Y, M70L, S98A
VL: B1 VL with I2L, D52N, G81E
notes: also called mAb104-409B11E12
As for B6, the Mean fluorescence intensity in assay [1] was 112 MFI; in assay [2] it was 3.3 MFI.

B7: 409D4E10 mouse-human chimeric antibody (antibody, V domains shown)
VH: B1 VH with Y27N, G56D, S58T, M70L, A72T, S98T, T99S
VL: B1 VL with D52N, G81E, D92N
notes: also called mAb112-409D4E10
On to B7, for which the “Inhibition rate (%)” value in assay [3] came out at 95.7%. Moreover, in assay [4], the Mean fluorescence intensity worked out at 140.

B8: 409D4E10 (mouse antibody purified from hybridoma) (antibody, V domains shown)
VH: B1 VH with Y27N, G56D, S58T, M70L, A72T, S98T, T99S
VL: B1 VL with D52N, G81E, D92N
notes: also called mAb112-409D4E10
As for B8, the Mean fluorescence intensity in assay [1] came out at 123 MFI; in assay [2] it was 3.5 MFI.

B9: 556F6B8 mouse-human chimeric antibody (antibody, V domains shown)
VH: RVQLKQSGPGLVQPSQSLSITCTVSGFSLIKYGVHWVRQSPGEGLEWLGVIWRGGITDYNAAFMSRLSITKDNSKSQVFFKMNSLQADDTAIYYCAKWDGPLAMDYWGQGTSVTVSS
VL: DIVMTQSHKFLSTSVGDRVSITCKASQDVGTTVAWYQQKPGQSPKLLIYWASTRHTGVPDRFTGSGSGTDFTLTISNVQSEDLADYFCQQYSSYPYTFGGGTKLEIK
notes: also called mAb123-556F6B8; 556F8B8
For the molecule B9, the “Inhibition rate (%)” value in assay [3] turned out to be 95.8%. This molecule registered a Mean fluorescence intensity in assay [4] of 123.

B10: 556F6B8 (mouse antibody purified from hybridoma) (antibody, V domains shown)
VH: B9 VH
VL: B9 VL
notes: also called mAb123-556F6B8
Turning to B10, the Mean fluorescence intensity in assay [1] is 74.9 MFI; in assay [2], 3.9 MFI.
